assay: yeast display, Sf9 membrane polyspecificity reagent, FACS + sequencing; frameworks hold sequencing errors
Summary of the method: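 Nanobodies came from a synthetic yeast display library in Saccharomyces cerevisiae BJ5465, induced with galactose for 36–48 hours and stained for 1 hour at 4 °C with 10% biotinylated, detergent-solubilized Sf9 membrane reagent. Cells were enriched on streptavidin microbeads and then FACS-sorted, with low and high (top ~1%) gates set on anti-HA fluorescence for expression and streptavidin fluorescence for reagent binding. Each polyreactivity label reflects the gate a clone came from. Genes were amplified by colony PCR, sequenced by MiSeq 2 × 250 and filtered by CDR length.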

Sequence | polyreactivity (PSR sort gate)
QDQLVDSGGGLVQAGGSLRLSCAASGSTFYYYTMGWYRQAPGKEGELVAAITSGGSTYYADSVKGRFTISRDNAKNTVYLQLNSLKPEDTAVYYCAADLRRNGWGFDYWGQGTQVTVSS | high polyreactivity
QDQLVDSGGGLVQAGGSLSLICAATGLIFNRNAMGWYRQAPGKERELVASISSGGRTNYADSVKGRFTISRDNAKNTVYLQMNSLKPEDTAVYYCAAKSPRILLDYWGQGTQVTVSS | low polyreactivity
QDQLVDSGGGLVQAGGSLSLSCAASGYILDYYAMGWSRQAPGKERELVAAISYRGDSTYYADSVKGRFTISRDNEKNTVYLQMNSLKPEDTAVYYCNAGYFTRAQYEYDYWGQGSQVTVSS | high polyreactivity
QDQLVESAGGLVQAGGSLRLSCAASGLTFWDYAMGWSRQAPGKERELVAGINTRGTSTYYADSVKGRFTISRDNAKNNVYLQMNSLKPEDTAVYYCAARVRSELIKRYYWGQGSQVTVSS | high polyreactivity
QDQLVESAGGLVQAGGSLRLSCAASGRIYVSNVMRWSRQAPGKERELVAAIDKSGGSTYYADSVKGRFTISRDNAKNTVYLQMNSLKPEDTAVYYCAATSYRQPYRYYYWGQGTQVTVSS | high polyreactivity
QDQLVESAGGLVQAGGSLSLSCAATGFTFYYNAMGWYRPAAGKERELVASITRSGGRTYYADSVKGRFTISRDNAKNTVYLQMNSLKPEDTAVFYCARRYPGGYYWGQGTQVTVSS | high polyreactivity
QDQLVESCGGLVQARGSLRLSCAASGFTFRYNAMGWYRQAPGKERELVAAITGSTGTTYYADSVKGRFTISRDNAKNTVYLQMNSLKPEDTAVYYCAATFRDQHGSLYGYWGQGSQVTVSS | high polyreactivity
QDQLVESGAGLVQAAGSLRLSCAASGSTFDTYALGWYRQAPGKERELVAAISVSGTSTSYADSVKGRFTISRDNAKNTVYLQMNSLKPEDTAVYYCNATDFSRNPGYARPEYDYWGQGTHVTVSS | low polyreactivity
QDQLVESGAGLVQAGGSLRLSCAASGRIFDRYAMGWYRQAPGKEREMVAAITTSSGGSTYYADSVKGRFTISRDNAKNTVYLQMHSLKPEDTAVYYCAADRRYNVIGEFGYWGQGTQVTVSS | low polyreactivity
QDQLVESGGCLDQAGCSLRLSCAASGSIFYYNAMGWSRQAHGKESEFVATITNSGGRTYDADSVKGRFTISRDNAKNSVYLQMNSLKPEDTAVYYCNADVHRFSGNGYRYYYWGQGTQVTVSS | low polyreactivity
QDQLVESGGCLVQAGGSLRLSCAASGSIFYVNAMGWYRPAPRKERELVAGISRSGGRTYYADSVKGRFTISRDNAKNTVYLHMNSLIPEDTAVYYCAALVGRIWYGLDYWGQGTQVTVSS | high polyreactivity
QDQLVESGGCLVQAGGSLRLSCAASGSTFDTNSMGWSRQAPGKERELVAAISGSGVRTYYADSVKGRFSISRDNAKITVYLQMNRLNPEDTAVYYCAARGSRRGTWYDYWGQCTQVTVSS | high polyreactivity
QDQLVESGGGIVQAGGSLRLSCAASGIIFGFYAMGWYIKAPGKERELVASISYSGGRTYYADSVKGRFTISRDNAKNTFYLQMISLKPEDTAVYYCAARLYWIPPSPSRYDYWGQGTQVTVSS | high polyreactivity
QDQLVESGGGIVQAGGSLRLSCAASGRTFVAYAMGLYRQAPGKEREFVARISSGGSTYYADSVKGRFTISRDNAKNTVYLQMNSLKPEDTAVYYCAADRGPYFVPWRRYDYWGQGTQVTVSS | low polyreactivity
QDQLVESGGGIVQAGGSLRLSCAASGRTFYRYAMGWYRQAPGKERELVATISGGGSTNYADSVKGRFTISRDNAKNTVYFQMNSLKPEDTAVYYCAVRLRPPYYLPYYYWGQGTQVTVSS | high polyreactivity
QDQLVESGGGLDQAGGSLRLSCAASGNIFYSYAMGCYRQAPGKERELVAAISSSGGRTYYADSVKGRFTISRDNAKNTVYLQMNSLKPEDTELYYCNAYVQVMRYLFGRPTVYPYDYWGQGTQVTVSS | high polyreactivity
QDQLVESGGGLDQAGGSLRLSCAASGRIFYPYTMGWYRQAPGKERELVAANTRSAASTHYADSVKGRFTISRDNAKNTVYLQMNSLKPEDTAVYYCAADDRGSSYGHFTVEYGYWGQGTQVTVSS | low polyreactivity
QDQLVESGGGLDQAGGSLRLSCAASGRILIIYAMGWYRQAPGKERELVARITYTGGRTYYADSVKGRFTISRDNAKNTVYLQMTSLKPEDTAVYYCATVWSRSDSSSHYDYWGQGTQVTVSS | low polyreactivity
QDQLVESGGGLDQAGGSLRLSCAASGRTFRKYAMGWYSQAPGKERELVAAITTSGARTYYADSVKGRFTISRDNAKNTVYLQMNILKPDDTAVYYCNAVSPYDGIEFDYWGLGTQVTVSS | high polyreactivity
QDQLVESGGGLFQAGGSLRLSCAASGFTFTSYNMGWYRQAPGKEMELVAGISLSGGDTSYADSVKGRFTISRDNAKNTVYLQMNSMKPEDTAVYFCAKSYVNYAFDSWGHGTQVTVSS | high polyreactivity
QDQLVESGGGLGQAGGSLRLSCAASGSTFNNYAMGWYRQAPGKERELVAVITKRGGSTYYADSVKGRFTISRDTAKNTVHLQMNSLKPEDTAVYYCPASSLYDGYWGQGTQVTVSS | high polyreactivity
QDQLVESGGGLGQAGGTLRLSCAASGNTFTFNTMGWHRQEPGKEREVVAVISRSGGSTYYSDSVKGRITISRDNAKNTVYLQMNSLKPEDTAVYYCAAQGYWYGFVPYDYWGQGTQVTVSS | high polyreactivity

Sequence | polyreactivity (PSR sort gate)
QDQLVESGGGLLQAGGSLRLSCAASGRNFVRNAMGWYRQAPGKEWELVAAISWSSGGTYYADSVKGRFTISRDNAKYTVYLQMNSLKPEDNSVYYCNARGWTLGADFGYWGQGTQVTVSS | low polyreactivity
QDQLVESGGGLLQAGGSLRLSCAASGYTFPIYAMGWYRQAPGKERELVAGISKNGGSTYYADSVKGRFTISRDNAKNTVYLQMNSLKPEDTEVYYCNASAWGRPYYRGSYFVFPGYEYWGQGTQVTVSS | low polyreactivity
QDQLVESGGGLVPAGGSLRLSCAASGGILPQYAMGWYRQAPGKERELVAAITRGGARTYYADSVKGRFTISRDNAKNTVYLQMTSLKPEDTAVYYCAARGPGYQLYDYWGQGTQVTVSS | high polyreactivity
QDQLVESGGGLVQAGASLRLSCAASGNIFANAMGWYRQAPGKQRELVAAISRSGGRTYYADSVKGRFTISRDNANNTVYLQMKSLIPEDTAVSYCNKAAYNYYLYGYWGQGTQVTVSS | high polyreactivity
QDQLVESGGGLVQAGASLRLSCAASGRISYYYTMGWYRQAPGKERELVAAISWSGGTTYYADSVKGRFTISRDNAKNTVYLQMNSLKPDDTAVYYCAAREYYTDVHGTRRYDYWGQGTQVTVSS | low polyreactivity
QDQLVESGGGLVQAGCSLRISCAASGRTFGVYAMGWYRQAPGKERELVAAINRSGTRTYYADSVKGRFTISRDHAKNTVYLPMNSLKPEDTAVYYCAASWYPGSRNYDYWGQGTQVTVSS | high polyreactivity
QDQLVESGGGLVQAGCSLRLSCAASGRIFSWYTMGWYRPAPGKERELVAVITSGGTTKYADSVKGRITISRDNAKNTVYLQMNSLKPEDTAVYYCNVAGRDYAVRWGSFDYWGQGTQVTVSS | low polyreactivity
QDQLVESGGGLVQAGGILRLSCAASGITFSYYTMGWYSQAPGKERELVAGITRSGSTYYADSVKGRFTISRDNAKNTVYLQMNSLKPEDTAVYYCAAEIYAFSGLYYYCGQGTQVTVSS | high polyreactivity
QDQLVESGGGLVQAGGRLRLSCAASGSIFVRNFMGWYRQAPGKERELVPAISWNGGSTFYADSVKWRFTISRDNAKNTVYLQMNSLKPEETAVYYCATRYGRHGWFYLYDYWGQGTQVTVSS | low polyreactivity
QDQLVESGGGLVQAGGSLLLSCAASGGIFRFKAMGWYRQARGKERELVAAIIRGGSTYYADSVKGRFTISRDNAKNTVYLQMISLKPEDTAVYDCAADYEYRTKTRDGYYCGQGTQVTVSS | low polyreactivity
QDQLVESGGGLVQAGGSLPLSCAASGLTFDYYVMGGYRQAPGKERELVATISWSGDITYYADSVKGRFTISRDNAKNTVYLQMNSLKPEDTAVYYCAADPYSWREGGYWGQGTQVTVSS | low polyreactivity
QDQLVESGGGLVQAGGSLRFSCAASGRIFTYYTMGWYRQAPGKERELVARITFSAGRTYYADSVKGRFTISRDNAKNTVYLQMNSLKPEDTAVYYCAARSYHYRNYYWGQGTQVTVSS | high polyreactivity
QDQLVESGGGLVQAGGSLRIICAASGSIVVTNAMGWYRQAPGKVRELVAAMSGRADSTYADSVKGRFTISRDNAKNTVYLQMNSLKPEDTAVDYCAAKVRGWHYYYCGQGTQVTVSS | low polyreactivity
QDQLVESGGGLVQAGGSLRISCAASGRIFYYYGMGWYRQAPGKEWELVAAITSDGDTNYADSVKGRLTISRDNAKNTVYLQMNSLKPADTAVYYCAGKWDWGYWRGFQYGFNYWGQGTQVTVSS | low polyreactivity
QDQLVESGGGLVQAGGSLRLICAASGRIFGVNAMGWYRQAPGKERELVAVISSGGSTYYADSVKGRFTISRDNAKNTVYLQMNSLKPEDTAVYYCAAEIYFFVSYDYWGQGTQVTVSS | low polyreactivity
QDQLVESGGGLVQAGGSLRLICAASGRIFVYYAMGWYRQAPGKERVLVATISSGGSTYYADSVKGRFTISRDNAKNTVYLQMNSLKPEDTAVYYCAADTDNRDLAYYYKGDYWGQGTQVTVSS | low polyreactivity
QDQLVESGGGLVQAGGSLRLICAASGRILTSYAMGWYRQAPGKERELVAAISGSSASTYYADSVKGRFTISRDNAKNTVYLQMNSLKPEDTAVYYCAAYKYDYRVDTGYDYWGQGTQVTVSS | low polyreactivity
QDQLVESGGGLVQAGGSLRLICAASGRSLIHYAMGWYRQAPGKERELVASMTYSGGSTYYADSVKGRFTISRDNAKMTVYLQMNSLKPEDTAVYYCAATLGNRWFHYNYWGQGTQVTVSS | low polyreactivity
QDQLVESGGGLVQAGGSLRLICAASGRTFTFYAMGWSRQAPGKERELVAAIRRGGSTNYADSVKGRFTISRDNAKNTVYLQMNSLKPEDTAVYYCNKRVWYPYWTLDYWGQGTQVTVSS | low polyreactivity
QDQLVESGGGLVQAGGSLRLICAASGRTFYQYVMGWYRQAPGKERELVAAIRSGGNTYYADSVKGRFTISRDNAKNTVYLQMNSLKPEDTAVYYCAVQRGYYRYRLGRYGYDYWGQGTQVTVSS | high polyreactivity
QDQLVESGGGLVQAGGSLRLICAASGSIFEPYVMGWYRQAPGKERELVAAIRQTGGSTYYADSVKGRFTISRDNAKNTVYLQMNSLKPEDTAVYYCNAEQNPSGLYDYRGVEGEMGYWGQGTQVTVSS | low polyreactivity

From the nanobody polyreactivity screen of Harvey et al. (2022)
